Holding throughout (experiment): SPR
A general note: Surface plasmon resonance follows binding to a sensor surface in real time, without labels.

Assay [1] concerns the target equine angiotensin converting enzyme 2 (residues 19-615) (horse (equine)).
The target of assay [2] is SARS-CoV-2 Beta variant receptor binding domain (residues 319-541) (SARS-CoV-2 (Beta variant)) (UniProt P0DTC2).
Assay [3] has as its target SARS-CoV-2 Delta variant receptor binding domain (residues 319-541) (SARS-CoV-2 (Delta variant)) (UniProt P0DTC2).

Consider “SARS-CoV-2 prototype receptor binding domain (residues 319-541) (from UniProt P0DTC2 319-541) (domain or fragment)”, for which, in assay [1], the fold lower affinity than hACE2 with the SARS-COV-2 PT-RBD is 32.2 fold.

Consider “equine angiotensin converting enzyme 2 (residues 19-615) (from UniProt A0A9L0TPT7 19-615) (receptor)”, for which the fold decrease in affinity against the SARS-CoV-2 PT-RBD came out at 4.1 fold in assay [2] and 2 fold in assay [3].
